Assays:
[1] = biological target: rSTEAP1 (Six Transmembrane Epithelial Antigen of Prostate 1) (Oryctolagus cuniculus, UniProt G1SWI4); assay: fluorescence titration; format: binding
[2] = biological target: rabbit STEAP1 (Six Transmembrane Epithelial Antigen of Prostate member 1) with residues 2-42 truncated (rabbit); assay: SEC
[3] = biological target: rabbit STEAP1 (Six Transmembrane Epithelial Antigen of Prostate member 1) with residues 2-42 truncated (rabbit); assay: SEC-MALS

rSTEAP1 (Six Transmembrane Epithelial Antigen of Prostate 1), sequence (G1SWI4 43-352): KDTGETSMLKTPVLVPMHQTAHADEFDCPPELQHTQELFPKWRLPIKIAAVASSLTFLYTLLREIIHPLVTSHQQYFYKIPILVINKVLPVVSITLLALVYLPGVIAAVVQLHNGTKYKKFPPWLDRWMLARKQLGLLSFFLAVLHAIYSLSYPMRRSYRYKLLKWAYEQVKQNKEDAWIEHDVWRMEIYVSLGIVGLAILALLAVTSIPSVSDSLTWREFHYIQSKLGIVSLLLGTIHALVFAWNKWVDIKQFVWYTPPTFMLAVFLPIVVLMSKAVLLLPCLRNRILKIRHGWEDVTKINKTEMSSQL

Compound | Kd [1] | stoichiometry N [2] | stoichiometry N [3]
Cc1cc2nc3c(=O)[nH]c(=O)nc-3n(C[C@H](O)[C@H](O)[C@H](O)COP(=O)(O)OP(=O)(O)OC[C@H]3O[C@@H](n4cnc5c(N)ncnc54)[C@H](O)[C@@H]3O)c2cc1C [FAD] | 32.3 ± 1.3 µM |  | 
rabbit STEAP1 (Six Transmembrane Epithelial Antigen of Prostate member 1) with residues 2-42 truncated (domain or fragment) |  | 3 | 3
